From PMC5150261

Legend:
[1] = molecular target: VHR (as used in the GST pull-down) (not stated (human or mouse cDNA cloned)) (UniProt P51452)
[2] = molecular target: VHR (as used in the GST pull-down) (not stated (human or mouse cDNA cloned)) (UniProt P51452); remark: listed apart in the source

Chain of UniProt P51452 (P51452 whole entry): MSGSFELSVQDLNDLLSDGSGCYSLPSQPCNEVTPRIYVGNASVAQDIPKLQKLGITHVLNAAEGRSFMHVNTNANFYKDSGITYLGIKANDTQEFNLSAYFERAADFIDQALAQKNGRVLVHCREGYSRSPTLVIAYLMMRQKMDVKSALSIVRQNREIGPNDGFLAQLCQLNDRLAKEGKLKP

- in vitro VHR phosphatase activity with pNPP as substrate (5 μg GST-VHR with 10 μg His-HSP70, against VHR alone) [1]: 2 fold
- in vitro VHR phosphatase activity with purified recombinant p-ERK2 as substrate (1 μg GST-VHR with 2 μg His-HSP70, against VHR alone) [2]: 2 fold
Substance: GST-tagged full-length HSP70 (from UniProt P0DMV8 1-641) (natural protein)
